The text below walks through data of publication PMC5033356, “Crystal Structure of the Escherichia coli Fic Toxin-Like Protein in Complex with Its Cognate Antitoxin” (PLoS ONE, 2016).

One assay has as its target T1, EcFicT_(G55R) (Escherichia coli, UniProt P20605 3-200, G55R).
T1 construct: EcFicT of Escherichia coli, UniProt P20605, with G55R (the change encoded by the temperature-sensitive fic-1 allele), introduced by a single base-pair mutation; model of PDB 5JFF covers residues 10-15, 17-198; G55R is the change of the fic-1 mutant allele described by Utsumi et al; here it was introduced into the plasmid by mutagenesis; also called G55R point mutant of EcFicT; product of the …
T1 sequence: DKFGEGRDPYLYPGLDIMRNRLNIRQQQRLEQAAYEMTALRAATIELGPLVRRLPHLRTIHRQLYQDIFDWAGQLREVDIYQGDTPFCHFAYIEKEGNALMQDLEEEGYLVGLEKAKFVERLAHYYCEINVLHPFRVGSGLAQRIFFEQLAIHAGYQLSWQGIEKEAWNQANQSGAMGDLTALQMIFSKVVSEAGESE
Nature of the assay: SEC-MALS. To be noted: both partners purified.

Assay [1] deals with T2, EcFicT (E. coli Fic toxin-like protein, wild type) (Escherichia coli, UniProt P20605 3-200).
T2 construct: EcFicT, product of the fic gene (renamed ecficT) of Escherichia coli; UniProt P20605; model of PDB 5JFZ covers residues 10-81, 88-195; also called EcFicTwt; Fic protein from E. coli
T2 sequence: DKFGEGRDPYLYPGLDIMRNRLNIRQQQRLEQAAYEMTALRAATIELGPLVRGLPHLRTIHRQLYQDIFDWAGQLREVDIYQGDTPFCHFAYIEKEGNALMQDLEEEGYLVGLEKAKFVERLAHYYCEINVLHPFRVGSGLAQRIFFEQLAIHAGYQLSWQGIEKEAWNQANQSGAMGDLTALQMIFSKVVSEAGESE
Nature of the assay: SEC-MALS. The settings on record: both partners purified. In general terms: Size exclusion chromatography separates by hydrodynamic size, large species first.

B1: EcFicA (cognate antitoxin of EcFicT, wild type) (natural protein, Escherichia coli)
chain: KKLTDKQKSRLWELQRNRNFQASRRLEGVEMPLVTLTAAEALARLEELRSHYER
notes: EcFicA, product of the yhfG gene (renamed ecficA) of Escherichia coli; UniProt P0ADX5; model of PDB 5JFF covers residues 3-53; also called EcFicAwt; YhfG
A word on the stoichiometry N: it is the number of molecules, sites or subunits per partner or assembly. As to B1, the “stoichiometry N” value (in the assay with EcFicT_(G55R); in assay [1]) was 1 in each case.

B2: EcFicA_(E28G) (natural protein, Escherichia coli)
chain: KKLTDKQKSRLWELQRNRNFQASRRLGGVEMPLVTLTAAEALARLEELRSHYER
notes: model of PDB 5JFZ covers residues 5-53; also called antitoxin mutant EcFicA_(E28G)
As to B2, the “stoichiometry N” value (in the assay with EcFicT_(G55R); in assay [1]) was 1 throughout.
